Data on two molecules can be found in publication PMC2192141.

For the data set, the target named is HMG I/Y (recombinant HMG I) (UniProt P17096 1-107). Put plainly: EMSA.
Chain of HMG I/Y (recombinant HMG I) (P17096 whole entry): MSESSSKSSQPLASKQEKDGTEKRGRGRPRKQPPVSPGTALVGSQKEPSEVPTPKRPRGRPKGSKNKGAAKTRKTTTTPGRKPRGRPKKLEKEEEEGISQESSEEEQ

B1: MIS (mutant D box) (dsDNA)
DNA 1: ATCTCAAAATATGGGTCTGATTGGCCA
DNA 2: TGGCCAATCAGACCCATATTTTGAGAT
In the case of B1, the binding result is “no binding”.

B2: MOCT (mutant octamer) (dsDNA)
DNA 1: AGAGTAATTGATGGGCATTTTAATGG
DNA 2: CCATTAAAATGCCCATCAATTACTCT
For B2, the binding result is “no binding”.
